According to the DeepSol protein solubility set:

Assay: soluble on expression in E. coli; label from the status in PepcDB or PDB records

Sequence	soluble on expression in E. coli
MAHHHHHHMSFVVIRLLEVLPTQVRTQLTANAEYVVSVSSAQRLSTFCSQGPYAATRLQLSDFDGAARLWEPQWNVVEALPATKEVHDVSRVCAVYRGNSGVTAFAFIDEHGTVLATTRWVDCALSTVSGRERAVLQAAQLRKLFTQCRPTVMAIGASSIACLPLLRTLETFLREQVHQSAVVDVPVVWASVEVPRYYSVTTYARLELPQTENIVVTSVALARYVQDPLQVLCSLFEGEQTALQLCRTIRISASHDRQLYQASGVGDEPVGGGGGPVGRRYCVPPQHCRDAAVCSRPRPRQSACVGQCHPSLRRSAKSTASGAASGTLRGRHRAERRAGAARSLAGAMRRGAPVAPSRCNADPVAVVRDRLFGGKGDCLLIDAAGRSVASRAAWNGAGGAPGCTLPRRRAFYGCQGQGECGGPGRRGSS	not soluble
MSLYVDAGLQPLDKNNKKLVQVHIPEGSSNKQIAAVLEESNVIKSGMVFNYYVKFKNLTDFQAGYYQMSPSMTLDEIGEMLKEGGTPEPTKIADGKVTIPEGYDIDKIGEAIEKNTDFKKADFIALMKNEDFFNQMKAKYPDLLESAATAEGVRYRLEGYLFPATYDYYKKATLPEFVEQMIAKMNTVMEQYTPTIHAKNLTNQQVLTLASLVEKEGVKEADRKQIAQVFFNRLAADMPIQSDISILYALGEHKETVTYADLEVDSSYNLYKNTGYGPGPLDSPSEESIKAVLNPTPSDYLYFVADISTGKVYFSKTYEEHQVLVDQYVNNSSSEEGHHHHHH	soluble
MGHHHHHHSHMGNCQAVNAAVLVLQHPGGIIDRYYSSVSVTEVMAMYPGHYVSLIIPLSEEEEKNIPATEKGDDKKQRKAVRFTRVQLLRPTENLVLGHAYRLITSQEVMKVLREKKSAKTKKHQIEKTTTAKKFSDKKVPEKKQGKQFRVIRNSTSLLKSKTWRPSLQSISEATS	soluble
LDNEMLTLDIVASDLLTLQALNAARLKEAGAVDATFVTKAINEQPLNLGQGIWLSDSAEGNLRSAIAVSRAANAFDVDGETAAMLVSVAMNDDQPIAVLKRLADLLLDNKADRLLKADAATLLALLTSDDAPTDDV	not soluble
MIKRKLQDLAVCCSYQVDFLHEKKHSVKEFKRKYEVLDEIGRGGFGIVYEATTRQDGQQPVAVKFVQHKHVRSWTMTCRQLIPSEVCHLETCEDIPGVIKILDWFANSKGFLIVMERPANCMDLFDMVSVHGPLNEDMGKFIFKQVITTVFNMYSKHGLLHRDIKDENLIVNMNTGEVKLVDFGATAYAEKATKKEFQGTRSYCPPEWFRDQLYLPLEATSWSLGVLLFILLTGKLPFRNEIQICLGNVKFPPDLSKEVCQLVKSCLTTSTSARASLAQIAAHPWMETDKPFFGGDLTFEEALMEIKNPPVVIEDKEAEEEDNDLNDVVILTRSRESRTDLDAESICTMVTAVEDRYEPSIAVKELEQEEIVETGETTNLMRSESRYDNISSSSFCDYVSLVSSSYDDQFTSTSDIYQSACEVFPHTGSSSSLSRSMGAVKSASAYNLVRMRKKSSIFKSFDTELDPVSENDHQPLIPETSSATCQSTYSNDEDVTISEKVVSPAQPLPPPLSPRKGSLQCFESVPRSRDSVIRMSRHRPLQFAIDSSSPPPALAIFQVSPTASVG	not soluble
MKCSKCGREAIYFARYEGRYYCHKHFNELVEGKVKRTIRKYRMIKRGEKVGVAVSGGKDSVVLMHILAKLRKKFPFELVAITIDEGIKGYRDKSVEVARKNAELLGVEHHIYRFKDFIGFTLDETVEIMGPREERVGACSYCGVWRRWLLNKAAEELGVDKLALGLNLDDEVQVFLMNLMRGDVARLGRTGPYYEVIHEGLVPRIKPLREVPEKEIVLYAVLNNIEVDLSECPYATEAFRAEIRDWLNEMEEKHPGTKYQLLRSYDKIFPLLAKTYAKEVKLNRCKICGQPTSGEICKACQFRLQVKEKSENLKFSLTK	not soluble
MNFTEMTSMEPIVTESRTPIPPVTDADRKAAFGNLQGHAIHDSAINYLVLLDQLEWQRSDNTNNFSWSVNSWIGGDTDRIWLKSEGERSNGETEAAEAQLLWGHAVGPWWDLVAGVRQDFRPASARTWAAVGFQGLALYNFESEITGFVSNGGKAALRLGGEYDVLLTNRLILQPSYEVNFYSQDDESRGRGRGLTDTELGLRLRYEIRREFAPYIGVSWNQLYGKTSDMAKREGEKDHQVVFLAGARIWFLEHHHHHH	not soluble
MGSDKIHHHHHHMPAAATLADWKAASVPDFLAERSRQELARLGNPGWWGPPDLEALAELMQLAAAEGWRILPAGRGTRLDWGGLGHPVDAVISTAACDRLIEHAAADLTVTVEAGMTLGQLQTILAETGQWLPFDPIAGESSSLGALVSTGMSGSLRHRYGSLRDFLIGITFLRHDGQWAKGGGRVVKNVAGYDMMKLLHGAWGSLGLIGKLTFRTYPLPNAWGTIACQGDREAILQLRSQLVRSDLTPVAFDLLSPAAAAELELRSQWTVLLRFGSVAASVQEQQQVVELQATRLGLAAMTVAEPVWGQLNQSFEPRSRSATLIKFALLPSQLPCLLAELEAIAPTALGRVHAASGAGWLVWPEAEPTVETLLRLRRHCEVAEGFLSVLAASVSLKQQLDIWGYPGQGLAVMRAIKRQFDPQSRLAPGRFLAGLEE	not soluble
HRVGLYEKALPNHLSWEEKLACTKELGFDFLEISVDESDERRSRLDWDDATIYSLHRLCEEYGVPLQSMCLSAHRKFPFGSADPALRDEALKIMQKAITLAYKLGIRTIQLAGYDVYYEPANSATHQRFIEGMQHAARLAERAGVMLAVEIMDTPYLNALSKFEVLNRQIQSPFFTAYPDVGNISGWNYDLLTELSLSKPHITQIHLKDTYKVSEQYAGQFRDLVIGEGDVDFDELFCRLKALDCVVPLVIEMWAHDEQWQQHIHTAQRRLNQACDRAELP	not soluble
MGSDKIHHHHHHMVQLIKKYEDLLCLLDELIKNESTFRWDEFYLERERDVPFFVLAPDEQLVEYVCTGLIESGKVLELGCGPGRNAIYLAENHFEVDVVDLSQKAIDWAMDRANERKASIRFIRENIFNLNVNKASYDLVYDSGCFHHIPPHRRMDYIHLVTTALKPGGHFGLTCFIENGPLGGAAISDLDVYRQQSLQGGLGFTEQKLIQIFDDFAVIEIRKMKEYPNDSSRFGVNGLLTALFQKKKVEKVK	not soluble
MAHHHHHHMAPVIPKSSNEGKDYSVASGSVDTPVLDQLVGYYVNIQSRKMYYKDFLRIEHQAVRWAFADIRKNSEALAHGLLQTGLRPGQRVLAIQPCNCETFVLQLACAKIGALLAVVPHHNISADKLRFYLNEFQPHHLIAREWIVVPEVKQGVLVERNMHFWDMIYNVIPELGLSYPGQRFQWVHSQEFFFLKKVVITDHNMNLLGVTPMRKMLVWGPFSYYEQRLRRLSALLHPDDPILALEDPHPALEDKLHITYSHRNCINAGFLFGNLMGLKAESRFGVMPNHHVDPVGAIVAPYAALTTGAVLVHIHSDMFTDDHAINGIEKLCVEEVVGMLGKKSDFDLLLRHAGNFDADQYEHLKWVVLFEDASEPTVGDEYLQKLAKELGLEDVFVFRGPLESAYMVMWRSLKRARWEMVPHVEAKVVGDRGTADARILAANTRGNLKLKGPHISAGYYNNAGLLTELVDERGFCSTSREAVMDERGQLTLHGTQLY	not soluble
MNAQRVVVMGLGNLLWADEGFGIRVAERLYARYHWPEEVEIVDGGTQGLNLLGYVEQASHLLLLDAIDYGLAPGSLRTYAGEKIPAYLSAKKMSLHQNSFSEVLALADIRGHLPCHIALVGLQPALLDDYGGSLSEIARSQLPAAEQAALAQLAAWGIVPQANEVARCLNYKCLSMENYEGVRIRQYQTRLEGKRSGE	not soluble
MNKVVLLCRPGFEKECAAEITDKAGQREIFGFARVKENAGYVIYECYQPDDGDKLIRELPFSSLIFARQWFVVGELLQHLPPEDRITPIVGMLQGVVEKGGELRVEVADTNESKELLKFCRKFTVPLRAALRDAGVLANYETPKRPVVHVFFIAPGCCYTGYSYSNNNSPFYMGIPRLKFPAEAPSRSTLKLEEAFHVFIPADEWDERLANGMWAVDLGACPGGWTYQLVKRNMWVYSVDNGPMAQSLMDTGQVTWLREDGFKFRPTRSNISWMVCDMVEKPAKVAALMAQWLVNGWCRETIFNLKLPMKKRYEEVSHNLAYIQAQLDEHGINAQIQARQLYHDREEVTVHVRRIWAAVGGRRDER	not soluble
MGHHHHHHSHMIALKMFYTEETYEQFFDYGLDYVIDASDTICYKIHLMKECLKRDIPLISSMGAANKTDPTRFQIADISKTHTDPIAKVVRTKLRKEGIKKGVQVIFSDESPIVIREDVRKEVGNDEAKIRKAKMPPSSNAFVPSVAGLIMGGHVVMDLLKDIEIKRVKDK	soluble
MGSDKIHHHHHHMNDVQQAINSDDIPLTDELVVSYLQDNPEFFNRNNSLMTGLRLNDEQRGTVSLVERQQQQLRQKVYGLEDEITQLMSVANHNEQLFVLYSDLYLRLLDCQSAEELLDCLHQATTELLSLSSFKLWLVSGNNTEVAHHSLSTNDCAGVMQNRLTNDEYYFGRLQESEQTLIFSKPCLGSVVLIKLTHDEQAVGFLAIGSEDAHHFDPRMDTLLLNQFKRLVAKLLHQQLSM	not soluble
MGHHHHHHSHMAFFRRSLMTENAVLQLRAERIARATRPFLARGNRVRRCQRCLLPEKLCLCSTITPAQAKSRFCLLMFDTEPMKPSNTGRLIADILPDTVAFQWSRTEPSQDLLELVQNPDYQPMVVFPASYADEQREVIFTPPAGKPPLFIMLDGTWPEARKMFRKSPYLDNLPVISVDLSRLSAYRLREAQAEGQYCTAEVAIALLDMAGDTGAAAGLGEHFTRFKTRYLAGKTQHLGSITAEQLESV	soluble
MGSDKIHHHHHHMILDERVNSNFDQLNDNDIQIAHYVNTHIDVCKNMKIQDLASQTHASNATIHRFTRKLGFDGYSDFKSFLKFEDSKNHQLPSDSMEQFKQEIENTFNYLERIDYRLLTHKMHHATTIYLYGTGRAQMNVAEEAQRILLTMHKNIILLHDVHELKMVLNKTIPEDLFFIISLSGETHQLKEVTQLLQLRQKYFISVTTMKDNTLAQQADYNVYVSSNTFYLNDGTDYSSFISYHIFFETLLRKYNEYKENHELT	not soluble
MYQYDEYDQALVSERVAQFRDQIARRLDGELSEEEFLPLRLQNGLYLQKHAYMLRVAIPYGTLSAPQLRALAHVARHYDRGYGHFTTRQNIQFNWIELEQVGDILEHLAGAQMHAIQTSGNCVRNITTEAFAGVAADEWTDPRPLAEILRQWSTVNPEFLFLPRKFKIALSSAVEDRAAVQMHDIGLYLYRHPDAGELRLRVLVGGGLGRTPMLGQVIRDDLPWQHLLSYVEAILRVYNRYGRRDNKYKARIKILVKALGIEAFAREVEEEWQHLRDGPAQLTAEECQRVAERFVLPRYLPPADGELAYGSARAADPAFARWASRNVQAHKVPGYASVVLSTKPGASAPPGDVTAEQMERVADWAERYGFGEIRVAHEQNLVLPDVRLENLHALWREACAAGLGTPNQGLLSDIIACPGGDYCALANAKSIPIAQGIQQRFEDLDHLHDIGELSLNISGCMNACGHHHIGNIGILGVDKSGSEWYQVTLGGAQGKDSALGKVIGPSFSAAEVPAVIERIVETFTDLRVGPERFIDTFNRVGLEPFKARVYARMEEPA	not soluble
MPNIVLSRIDERLIHGQVGVQWVGFAGANLVLVANDEVAEDPVQQNLMEMVLAEGIAVRFWTLQKVIDNIHRAADRQKILLVCKTPADFLTLVKGGVPVNRINVGNMHYANGKQQIAKTVSVDAGDIAAFNDLKTAGVECFVQGVPTEPAVDLFKLL	soluble
